{
  "source": "patent US20240148884A1",
  "about": "(Scripps Research, published 2024)",
  "binders": {"B1": {"name": "mCLZ715 (peptide)", "peptide": "YXEGTFTSDYSIYKDKQAAXKFVNWLLAGGPSSGAPPPS", "modifications": "Aib at positions 2 and 20; C-terminal amide (NH2); staple K5 attached at Lys14 and Lys21"}, "B2": {"name": "mCMC759 (C(14-21)-L5A) (peptide)", "peptide": "B1 peptide with K14C, K21C", "modifications": "Aib at positions 2 and 20; C-terminal amide (NH2); staple L5A attached at Cys14 and Cys21"}, "B3": {"name": "mCMD307 (2050-K4) (peptide)", "peptide": "B1 peptide", "modifications": "Aib at positions 2 and 20; C-terminal amide (NH2); staple K4 attached at Lys14 and Lys21"}, "B4": {"name": "mCMV266 (27I, C(14-21)-C20L5A) (peptide)", "peptide": "B1 peptide with K14C, K21C, L27I", "modifications": "Aib at positions 2 and 20; C-terminal amide (NH2); staple C20L5A attached at Cys14 and Cys21"}, "B5": {"name": "mCMV268 (27I, C(17-24)-C20L5A) (peptide)", "peptide": "YXEGTFTSDYSIYLDKCAAXEFVCWLIAGGPSSGAPPPS", "modifications": "Aib at positions 2 and 20; C-terminal amide (NH2); staple C20L5A attached at Cys17 and Cys24"}},
  "test_in_all_cases": "cell-based or functional assay",
  "key": {"human GLP-1R [1]": {"target": "T1, human GLP-1R (human, UniProt P43220 24-463)"}, "human GIPR [2]": {"target": "T2, human GIPR (human, UniProt P48546 22-466)", "T2 sequence (looked up)": "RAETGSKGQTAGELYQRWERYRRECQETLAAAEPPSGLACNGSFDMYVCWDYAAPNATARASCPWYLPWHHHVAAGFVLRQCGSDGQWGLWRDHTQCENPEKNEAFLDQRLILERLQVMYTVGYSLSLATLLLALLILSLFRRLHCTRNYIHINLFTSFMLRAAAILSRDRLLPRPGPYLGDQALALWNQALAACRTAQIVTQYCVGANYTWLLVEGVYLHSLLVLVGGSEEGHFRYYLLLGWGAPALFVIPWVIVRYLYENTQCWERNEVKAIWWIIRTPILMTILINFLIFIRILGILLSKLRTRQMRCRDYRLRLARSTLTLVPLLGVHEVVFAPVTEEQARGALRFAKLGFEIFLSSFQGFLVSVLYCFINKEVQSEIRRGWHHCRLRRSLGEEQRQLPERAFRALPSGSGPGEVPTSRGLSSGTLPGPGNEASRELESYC"}, "human GIPR [3]": {"target": "T2, human GIPR", "remark": "listed apart in the source"}, "human GIPR [4]": {"target": "T2, human GIPR", "remark": "listed apart in the source"}, "human GLP-1R [5]": {"target": "T1, human GLP-1R", "remark": "listed apart in the source"}, "human GIPR [6]": {"target": "T2, human GIPR", "remark": "listed apart in the source"}, "human GLP-1R [7]": {"target": "T1, human GLP-1R", "remark": "listed apart in the source"}, "human GLP-1R [8]": {"target": "T1, human GLP-1R", "remark": "listed apart in the source"}, "human GIPR [9]": {"target": "T2, human GIPR", "remark": "listed apart in the source"}, "cynomolgous monkey GLP1R": {"target": "cynomolgous monkey GLP1R (cynomolgous monkey)"}, "cynomolgous monkey GIPR": {"target": "cynomolgous monkey GIPR (cynomolgous monkey)"}, "mouse GLP1R": {"target": "T3, mouse GLP1R (mouse, UniProt O35659 22-463, limits assumed)", "T3 sequence (looked up)": "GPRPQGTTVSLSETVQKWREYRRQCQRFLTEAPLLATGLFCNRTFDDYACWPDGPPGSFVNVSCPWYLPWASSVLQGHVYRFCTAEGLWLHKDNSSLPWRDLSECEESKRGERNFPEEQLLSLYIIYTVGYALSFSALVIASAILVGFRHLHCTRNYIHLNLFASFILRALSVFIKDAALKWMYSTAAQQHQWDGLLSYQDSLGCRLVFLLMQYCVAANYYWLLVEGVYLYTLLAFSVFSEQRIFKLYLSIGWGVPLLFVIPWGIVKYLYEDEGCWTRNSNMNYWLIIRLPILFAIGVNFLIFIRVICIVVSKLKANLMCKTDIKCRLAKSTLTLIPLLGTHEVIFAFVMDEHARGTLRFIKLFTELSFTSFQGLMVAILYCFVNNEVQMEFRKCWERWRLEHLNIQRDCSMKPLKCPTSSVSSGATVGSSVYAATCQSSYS"}},
  "note": "Positions count from the first letter of the chain named. Names may count otherwise. Like-named read-outs stand apart in the source and are kept apart here. Bridge positions count the residues as written; N and C are the ends. Square brackets hold non-standard residues; d marks the D form. Ends that are not written are not given here. C20L5A staple = not defined here; L5A(S) staple = not defined here; C20L5A = not defined here; L5A = not defined here; Aib = CC(C)(N)C(=O)O",
  "data": [
    {"binder": "Y[Aib]EGTYTSDYSIYLDKCAA[Aib]EFVCWLIAGGPSSGAPPPS-NH2 (linker 17-24 via C20L5A; reading uncertain)", "note": "[6Y, 27I, C(17-24)-C20L5A]", "values": [
      {"measurement": "EC50 of receptor-mediated cAMP synthesis (02/19)", "setting": "human GLP-1R [1]", "value": 0.05, "unit": "nM"}
    ]},
    {"binder": "Y[Aib]EGTFTSDYSIYCDKQAA[Aib]CFVNWLLAGGPSSGAPPPS-NH2 (linker 14-21 via C20L5A staple; reading uncertain)", "note": "[C(14-21)-C20L5A]", "values": [
      {"measurement": "EC50 of receptor-mediated cAMP synthesis", "setting": "human GIPR [2]", "value": 0.05, "unit": "nM"},
      {"measurement": "EC50 of receptor-mediated cAMP synthesis (average)", "setting": "human GIPR [3]", "value": 0.05, "unit": "nM"}
    ]},
    {"binder": "Y[Aib]EGTFTSDYSIYLDKCAA[Aib]EFVCWLLAGGPSSGAPPPS-NH2 (linker 17-24 via C20L5A; reading uncertain)", "note": "[C(17-24)-C20L5A]", "values": [
      {"measurement": "EC50 of receptor-mediated cAMP synthesis", "setting": "human GIPR [4]", "value": 0.05, "unit": "nM"},
      {"measurement": "EC50 of receptor-mediated cAMP synthesis (3/25)", "setting": "human GLP-1R [1]", "value": 0.1, "unit": "nM"},
      {"measurement": "EC50 of receptor-mediated cAMP synthesis (03/26)", "setting": "human GLP-1R [1]", "value": 0.09, "unit": "nM"},
      {"measurement": "EC50 of receptor-mediated cAMP synthesis (average)", "setting": "human GLP-1R [1]", "value": 0.09, "unit": "nM"},
      {"measurement": "EC50 of receptor-mediated cAMP synthesis (03/25)", "setting": "human GIPR [3]", "value": 0.02, "unit": "nM"},
      {"measurement": "EC50 of receptor-mediated cAMP synthesis (03/26)", "setting": "human GIPR [3]", "value": 0.03, "unit": "nM"},
      {"measurement": "EC50 of receptor-mediated cAMP synthesis (average)", "setting": "human GIPR [3]", "value": 0.03, "unit": "nM"}
    ]},
    {"binder": "Y[Aib]EGTFTSDYSIYLDKCAQ[Aib]AFVCWLIAQGPSSGAPPPS-NH2 (linker 17-24 via C20L5A; reading uncertain)", "note": "[19Q, 21A, 27I, 29Q, C(17-24) - C20L5A]", "values": [
      {"measurement": "EC50 of receptor-mediated cAMP synthesis", "setting": "human GIPR [4]", "value": 0.02, "unit": "nM"}
    ]},
    {"binder": "B1", "values": [
      {"measurement": "EC50 of receptor-mediated cAMP synthesis", "setting": "human GLP-1R [5]", "value": 0.02, "unit": "nM"},
      {"measurement": "EC50 of receptor-mediated cAMP synthesis", "setting": "human GIPR [6]", "value": 0.02, "unit": "nM"}
    ]},
    {"binder": "B2", "values": [
      {"measurement": "EC50 of receptor-mediated cAMP synthesis", "setting": "human GIPR [2]", "value": 0.03, "unit": "nM"},
      {"measurement": "EC50 of receptor-mediated cAMP synthesis", "setting": "human GIPR [4]", "value": 0.03, "unit": "nM"}
    ]},
    {"binder": "B3", "values": [
      {"measurement": "EC50 of receptor-mediated cAMP synthesis", "setting": "human GLP-1R [5]", "value": 0.01, "unit": "nM"},
      {"measurement": "EC50 of receptor-mediated cAMP synthesis", "setting": "human GIPR [6]", "value": 0.02, "unit": "nM"},
      {"measurement": "EC50 of receptor-mediated cAMP synthesis", "setting": "human GLP-1R [7]", "value": 0.03, "unit": "nM"},
      {"measurement": "EC50 of receptor-mediated cAMP synthesis", "setting": "human GIPR [2]", "value": 0.01, "unit": "nM"},
      {"measurement": "EC50 of receptor-mediated cAMP synthesis", "setting": "human GLP-1R [8]", "value": 0.03, "unit": "nM"},
      {"measurement": "EC50 of receptor-mediated cAMP synthesis", "setting": "human GIPR [4]", "value": 0.01, "unit": "nM"},
      {"measurement": "EC50 of receptor-mediated cAMP synthesis (02/19)", "setting": "human GLP-1R [1]", "value": 0.01, "unit": "nM"},
      {"measurement": "EC50 of receptor-mediated cAMP synthesis (3/25)", "setting": "human GLP-1R [1]", "value": 0.01, "unit": "nM"},
      {"measurement": "EC50 of receptor-mediated cAMP synthesis (03/26)", "setting": "human GLP-1R [1]", "value": 0.01, "unit": "nM"},
      {"measurement": "EC50 of receptor-mediated cAMP synthesis (average)", "setting": "human GLP-1R [1]", "value": 0.01, "unit": "nM"},
      {"measurement": "EC50 of receptor-mediated cAMP synthesis (03/25)", "setting": "human GIPR [3]", "value": 0.01, "unit": "nM"},
      {"measurement": "EC50 of receptor-mediated cAMP synthesis (03/26)", "setting": "human GIPR [3]", "value": 0.01, "unit": "nM"},
      {"measurement": "EC50 of receptor-mediated cAMP synthesis (average)", "setting": "human GIPR [3]", "value": 0.02, "unit": "nM"}
    ]},
    {"binder": "B4", "values": [
      {"measurement": "EC50 of receptor-mediated cAMP synthesis", "setting": "human GLP-1R [7]", "value": 0.05, "unit": "nM"},
      {"measurement": "EC50 of receptor-mediated cAMP synthesis (02/19)", "setting": "human GLP-1R [1]", "value": 0.03, "unit": "nM"},
      {"measurement": "EC50 of receptor-mediated cAMP synthesis (3/25)", "setting": "human GLP-1R [1]", "value": 0.05, "unit": "nM"},
      {"measurement": "EC50 of receptor-mediated cAMP synthesis (average)", "setting": "human GLP-1R [1]", "value": 0.05, "unit": "nM"}
    ]},
    {"binder": "B5", "values": [
      {"measurement": "EC50 of receptor-mediated cAMP synthesis (02/19)", "setting": "human GIPR [3]", "value": 0.05, "unit": "nM"},
      {"measurement": "In Vitro Potency GIPR EC50 [nM], 10% FBS", "setting": "human GIPR [9]", "value": 0.09, "unit": "nM"},
      {"measurement": "In Vitro Potency GIPR EC50 [nM], No Serum", "setting": "human GIPR [9]", "value": 0.01, "unit": "nM"},
      {"measurement": "In Vitro Potency GLP1R EC50 [nM], Cyno", "setting": "cynomolgous monkey GLP1R", "value": 0.22, "unit": "nM"},
      {"measurement": "In Vitro Potency GIPR EC50 [nM], Cyno", "setting": "cynomolgous monkey GIPR", "value": 0.16, "unit": "nM"}
    ]},
    {"binder": "Y[Aib]EGTFTSDYSIYLDKCAA[Aib]EFVCWLLAGGPSSGAPPPS-NH2 (linker 17-24 via L5A; reading uncertain)", "note": "[C(17-24)-L5A]", "values": [
      {"measurement": "EC50 of receptor-mediated cAMP synthesis", "setting": "human GIPR [4]", "value": 0.05, "unit": "nM"}
    ]},
    {"binder": "Y[Aib]EGTFTSDYSIYLDKCAA[Aib]EFVCWLIAGGPSSGAPPPS-NH2 (linker 17-24 via L5A(S) staple; reading uncertain)", "note": "[mCMZ371 (C(17-24)-L5A(S))]", "values": [
      {"measurement": "In Vitro Potency GIPR EC50 [nM], No Serum", "setting": "human GIPR [9]", "value": 0.01, "unit": "nM"},
      {"measurement": "In Vitro Potency GLP1R EC50 [nM], Mouse", "setting": "mouse GLP1R", "value": 0.09, "unit": "nM"},
      {"measurement": "In Vitro Potency GLP1R EC50 [nM], Cyno", "setting": "cynomolgous monkey GLP1R", "value": 0.11, "unit": "nM"}
    ]},
    {"binder": "Y[Aib]EGTFTSDYSIYCDKQAA[Aib]CFVNWLIAGGPSSGAPPPS-NH2 (linker 14-21 via L5A; reading uncertain)", "note": "[27I, C(14-21)-L5A]", "values": [
      {"measurement": "EC50 of receptor-mediated cAMP synthesis", "setting": "human GIPR [2]", "value": 0.03, "unit": "nM"}
    ]}
  ]
}
